{
  "source": "paper PMC3977997",
  "about": "“Engineering the Expression and Characterization of Two Novel Laccase Isoenzymes from Coprinus comatus in Pichia pastoris by Fusing an Additional Ten Amino Acids Tag at N-Terminus” (PLoS ONE, 2014)",
  "proteins": {"B1": {"name": "Lac4 (Coprinus comatus) (protein)", "chain": "LSVGPRATLTLTNDVVAPDGFERSAIVVNGGHPGPLIQANKGDAYTINVVNRLTDSTMQRVSSIHWHGLSQRGTNWADGGSGVNQCPISPNHSFEYQFSGRKDQAGTFWYHSHYSIQYCDGLRGPLVIYDPNDPFKNLYDVDDESTVITLTDWYHTPFPSVTGPPTSDSTLINGKGRYPGGPNVDLSVINVERGKRYRFRLVALTCENSHLFGIDGHQLLVIETGGESTVPTLVDKITLLAGQRYSFVLDANQAVDNYWIRGLPRSGVPSLKAGYEGGLNSAILRYQGAPITEPQTTDNENAALLDEAQLVPTRNPFAPGRPTSGGADFNVTVNFELDLTTGSPHFKLNGKIYQPPTVPILLQIISGARKAEELLPEGNIYFVPRNKVVEVTVPGGIPGAPHPMHLHGHHFSVVKSAGKHNQVNYLTPVRRDTTASPVEVDDNTTIRFTTDSPGPWIFHCHFNKHQSIGMAVVFVADIDEVAEKNPTPDAWNDLCPIYQSLSESETVVEIVPMVKH", "notes": "mature form (532-aa precursor, 16-aa putative signal peptide removed); pPICZalphaB-10AALac4; secreted from Pichia pastoris KM71H; glycosylated, about 70 kDa (52 kDa after endoH)"}, "B2": {"name": "Lac3 (Coprinus comatus) (protein)", "chain": "SVLIPHSTLTLTNQLIAPDGFQRSAIVVNGEHPGPLIQATKGDGFMVNVVNQLTDPTMQRAASVHWHGLSQRGTNWADGATGVNQCPISPNHSFEYTFTGGDSQAGTFWYHSHYFLQYCDGLRGPLVIYDPEDPWKNLYDVDDESTVLTLADWYHTPFPSIPGFPLPESTLINGKGRYPDGPNVDLSIVNVEKGKRYRFRLVSLACETSYLFGIDGHQLQVIETDGQNTVPVVVDKLRIFAGQRYSFVLDANQNIDNYWVRSLPANGMPKLVAGYEGGINSAILRYRGAPISDPQTNDNQNLILLEEAKLVPAQDPFPPGNPTAGGADFNVTLNFVLDVDLASGEPQFKLNDKVYRPPSVPILLKILSGARRPEELLPEGNLFSVPRDKVIEVTVPGGIAAGPHPMHLHGHTFSVVKSAGKNNQPNYLTPVRRDVTATSQEVDDYITIRFTTDNPGPWLLHCHLNKHHESGMVVVFVADVDSVAEENPVPDAWNDLCPIYDALSDAEKEVKIVSSLPMPV", "notes": "mature form (547-aa precursor, 28-aa putative signal peptide removed); pPICZalphaB-10AALac3; secreted from Pichia pastoris KM71H; glycosylated, about 75 kDa (55 kDa after endoH)"}},
  "experiment_in_all_cases": "purified protein",
  "details_in_all_cases": "air oxygen",
  "key": {"purified protein [1]": {"substrate": "Cc1cccc(C)c1O", "type": "biochemical, Coprinus comatus"}, "purified protein [2]": {"substrate": "CCn1c(=NN=c2sc3cc(S(=O)(=O)O)ccc3n2CC)sc2cc(S(=O)(=O)O)ccc21", "type": "biochemical, Coprinus comatus"}, "purified protein [3]": {"substrate": "COc1cc(C=NN=Cc2cc(OC)c(O)c(OC)c2)cc(OC)c1O", "type": "biochemical, Coprinus comatus"}, "purified protein [4]": {"substrate": "COc1ccccc1O"}, "[5]": {"details": "pH 5.5 (optimum elsewhere given as 6.0), optimal temperature 65 °C"}, "[6]": {"details": "pH 3.0, optimal temperature 60 °C"}, "[7]": {"details": "pH 6.0 (optimum elsewhere given as 5.5), optimal temperature 65 °C"}, "[8]": {"details": "pH 6.0, optimal temperature 60 °C, 60.0 °C"}, "[9]": {"details": "pH 5.5 (optimum elsewhere given as 5.0), optimal temperature 60 °C"}, "[10]": {"details": "pH 3.0, optimal temperature 65 °C"}, "[11]": {"details": "pH 5.0 (optimum elsewhere given as 5.5), optimal temperature 60 °C"}, "[12]": {"details": "pH 5.0, optimal temperature 50 °C, 50.0 °C"}},
  "data": [
    {"protein": "B1", "values": [
      {"measurement": "Km", "setting": "purified protein [1]; [5]", "result": 7131, "unit": "µM"},
      {"measurement": "kcat", "setting": "purified protein [1]; [5]", "result": 1.47, "unit": "s⁻¹"},
      {"measurement": "kcat/Km", "setting": "purified protein [1]; [5]", "result": 206, "unit": "M⁻¹ s⁻¹"},
      {"measurement": "Km", "setting": "purified protein [2]; [6]", "result": 205, "unit": "µM"},
      {"measurement": "kcat", "setting": "purified protein [2]; [6]", "result": 1.47, "unit": "s⁻¹"},
      {"measurement": "kcat/Km", "setting": "purified protein [2]; [6]", "result": 7170, "unit": "M⁻¹ s⁻¹"},
      {"measurement": "Km", "setting": "purified protein [3]; [7]", "result": 204, "unit": "µM"},
      {"measurement": "kcat", "setting": "purified protein [3]; [7]", "result": 44.7, "unit": "s⁻¹"},
      {"measurement": "kcat/Km", "setting": "purified protein [3]; [7]", "result": 220000, "unit": "M⁻¹ s⁻¹"},
      {"measurement": "Km", "setting": "purified protein [4]; [8]", "result": 455, "unit": "µM"},
      {"measurement": "kcat", "setting": "purified protein [4]; [8]", "result": 0.196, "unit": "s⁻¹"},
      {"measurement": "kcat/Km", "setting": "purified protein [4]; [8]", "result": 503, "unit": "M⁻¹ s⁻¹"}
    ]},
    {"protein": "B2", "values": [
      {"measurement": "Km", "setting": "purified protein [1]; [9]", "result": 1374, "unit": "µM"},
      {"measurement": "kcat", "setting": "purified protein [1]; [9]", "result": 0.307, "unit": "s⁻¹"},
      {"measurement": "kcat/Km", "setting": "purified protein [1]; [9]", "result": 223, "unit": "M⁻¹ s⁻¹"},
      {"measurement": "Km", "setting": "purified protein [2]; [10]", "result": 136, "unit": "µM"},
      {"measurement": "kcat", "setting": "purified protein [2]; [10]", "result": 3.48, "unit": "s⁻¹"},
      {"measurement": "kcat/Km", "setting": "purified protein [2]; [10]", "result": 25600, "unit": "M⁻¹ s⁻¹"},
      {"measurement": "Km", "setting": "purified protein [3]; [11]", "result": 87, "unit": "µM"},
      {"measurement": "kcat", "setting": "purified protein [3]; [11]", "result": 32, "unit": "s⁻¹"},
      {"measurement": "kcat/Km", "setting": "purified protein [3]; [11]", "result": 367000, "unit": "M⁻¹ s⁻¹"},
      {"measurement": "Km", "setting": "purified protein [4]; [12]", "result": 1114, "unit": "µM"},
      {"measurement": "kcat", "setting": "purified protein [4]; [12]", "result": 0.418, "unit": "s⁻¹"},
      {"measurement": "kcat/Km", "setting": "purified protein [4]; [12]", "result": 375, "unit": "M⁻¹ s⁻¹"}
    ]}
  ]
}
